# Entries after “also recorded” stand apart in the source; their conditions may differ.
# What was measured:
# [1] = tested on: cardiac inflammatory and fibrogenic markers; experiment: Chronic Chagas cardiomyopathy (CCC) mice, transcripts by qPCR; format: in vivo
# Experimental: FIG. 3A depicts in vivo experimental design, groups, treatment and timeline for the infective and anti-inflammatory effects of sPDNF. C57BL/6 mice (7 per group) were injected intraperitoneally with T cruzi Colombian strain (8×10^2 per mouse) and, four months later, intravenously with PBS (vehicle) or sPDNF (1 mg/kg body weight) at 0, 3, and 24 hours, weekly for 3 weeks. Mice were sacrificed 50 days after the first set of IV sPDNF treatment. FIG. 3B are images of heart (ventricle) paraffin-embedded, sectioned, and stained with H&E. Arrows indicate foci of inflammatory infiltrates, which were abundant in sham-treated (IV PBS) CCC mice and rare in IV sPDNF-treated CCC mice. Similar histology was found in other tissue sections and in a distinct set of sPDNF-treated and PBS-sham mice.
# FIG. 5A is a graph showing transcript expression for inflammatory cytokines in hearts of the infected mice, as assessed by qPCR for the indicated transcripts, which were normalized to HPRT and made relative to uninfected vehicle-treated mice. Values for IFN-λ were reduced by 3-fold; **, p<0.01. FIG. 5B is a graph showing transcript expression for inflammatory cell markers in hearts of the infected mice, as assessed by qPCR for the indicated transcripts, which were normalized to HPRT and made relative to uninfected vehicle-treated mice. Values for CD8, and CD4 were reduced by 15-, and 1.5-fold, respectively; **, p<0.01, ***, p<0.001. FIG. 5C is a graph showing transcript expression for inflammatory cytokines in hearts of the infected mice, as assessed by qPCR for the indicated transcripts, which were normalized to HPRT and made relative to uninfected vehicle-treated mice. FIG. 5D is a graph showing percent reduction of cardiac inflammatory markers of mice chronically infected with T cruzi, using data from FIGS. 5A-5C. Baseline represents mean transcripts of uninfected mice. FIG. 5E is a graph showing expression of TSG-6 transcripts in heart and liver of T cruzi infected mice. Heart (ventricles+atria) and liver of mice (5 per group) infected acutely (25-day post injection) (Acute) or chronically (6-months PI, CCC, same as in FIG. 3) with T cruzi Colombian were assessed for TSG-6 transcript by qPCR and plotted relative to uninfected mice set at 1.0; **, P<0.001. […] is a graph showing TSG-6 serum levels assessed by ELISA (MyBiosource) in mice uninfected (Un-Inf) or bearing CCC and injected IV with vehicle PBS or sPDNF following the protocol described in FIG. 3. Bars represent the average (±SD) of three mice per point; two separate experiments, **, P<0.01.
# [2] = tested on: H9c2 cardiomyocytes; experiment: sPDNF stimulation of H9c2 cardiomyocytes, transcripts by qPCR; format: cell-based, rat
# Experimental: FIG. 8A is a graph showing dose-response of MCP-1 secretion to sPDNF stimulation. H9c2 cardiomyocytes were plated in 6-well plates, grown in low serum (0.1% FCS) overnight, and stimulated with the indicated doses of sPDNF for 3 hr. Secretion of MCP-1, MIP-2α and IL-6 was determined by ELISA. FIG. 8B is a graph showing dose-response of MCP-transcript expression. H9c2 cardiomyocytes were plated in 6-well plates, grown in low serum (0.1%) overnight, and stimulated with the indicated doses of sPDNF for 3 hr, and MCP-transcript quantified by qPCR. Chemokine gene expression was normalized to HPRT and fold change calculated relative to vehicle-treated cells. Points represent mean±SD fold change expression of triplicate samples; *P<0.05, **P<0.01, and ***P<0.005. FIG. 8C is a graph showing time course of MCP-1 and FKN transcripts expression. H9c2 cardiomyocytes were plated in 6-well plates (triplicate), grown in low serum (0.1%) overnight, stimulated with sPDNF (1 μg/ml) for the indicated times, and MCP-1 and FKN (data not shown) transcripts quantified by qPCR. Three experiments gave similar results.
# Primary cardiomyocytes and cardiac fibroblasts, and H9c2 cardiomyocytes were seeded at 6-8×10^4 cells per well in DMEM/10% FCS and allowed to adhere overnight, serum starved (DMEM/0.1% FCS overnight), and treated with sPDNF (0.5 ng/ml-8 μg/ml, 0-16 h). Cell supernatants were collected and stored at −80° C. and cell monolayers rinsed with PBS and collected in Trizol for qPCR analysis.
# RNA was isolated from Trizol lysates of cell monolayers or liquid nitrogen snap frozen tissue samples dissociated by a Tissue-Tearor mechanical homogenizer (Biospec Products, Inc.). cDNA was synthesized using the Quantitect Reverse Transcription kit (Qiagen) according to manufacturer's instructions. Chemokine and chemokine receptor transcripts were amplified using specific primers and normalized to HPRT using SYBR Green (Qiagen), and, if needed, expressed relative to control-unstimulated cells. The following primers were used: […]
# [3] = hearts of infected (CCC) mice, FIG. 5B
# [4] = H9c2, sPDNF 1 μg/ml, time course
molecule,measurement,setting,value
"sPDNF: N-terminal short-form of T cruzi PDNF that contains Trk-binding sites, recombinant; amino acids 1-588 of SEQ ID NO: 2; JR-100 is the commercial name (protein, listed as Trypanosoma cruzi) MGKTVVVASRMFWLMFFVPLLLAICPSEPAYALAPGSSRVELFKRKNSTVPFEDKAGKVTERVVHSFRLPALVNVDGVMVAIADARYDTSNDNSLIDTVAKYSVDDGETWETQIAIKNSRVSSVSRVVDPTVIVKGNKLYVLVGSYYSSRSYWSSHGDARDWDILLAVGEVTKSTAGGKITASIKWGSPVSLKKFFPAEMEGMHTNQFLGGAGVAIVASNGNLVYPVQVTNKKKQVFSKIFYSEDDGKTWKFGKGRSDFGCSEPVALEWEGKLIINTRVDWKRRLVYESSDMEKPWVEAVGTVSRVWGPSPKSNQPGSQSSFTAVTIEGMRVMLFTHPLNFKGRWLRDRLNLWLTDNQRIYNVGQVSIGDENSAYSSVLYKDDKLYCLHEINTDEVYSLVFARLVGELRIIKSVLRSWKNWDSHLSSICTPADPAASSSESGCGPAVTTVGLVGFLSGNASQNVWEDAYRCVNASTANAERVRNGLKFAGVGGGALWPVSQQGQNQRYRFANHAFTLVASVTIHEAPRAASPLLGASLDSSGGKKLLGLSYDEKHQWQPIYGSTPVTPTGSWETGKRYHLVLTMANKI",expression of anti-inflammatory TSG-6 in the heart and liver,"[1]; CCC mice, IV",increased expression; also recorded: restored TSG-6 transcript to levels seen in acutely infected mice
same,transcripts of cardiac inflammatory and fibrogenic markers,"[1]; CCC mice, IV",global decrease
same,IFN-λ transcript values reduced,"[1]; hearts of infected (CCC) mice, FIG. 5A",3 fold
same,CD4 transcript values reduced,[1]; [3],1.5 fold
same,CD8 transcript values reduced,[1]; [3],15 fold
same,"cardiac inflammation (CD8 lymphocyte infiltrates, pro-inflammatory cytokines such as tumor necrosis factor-α)","[1]; model of chronic Chagas disease, intravenous",reduced
same,FKN mRNA,"[2]; H9c2, 3 hr, dose-dependent",increase
same,MCP-1 mRNA,"[2]; H9c2, 3 hr, dose-dependent",increase
same,time at which MCP-1 transcript dropped to levels similar to unstimulated cells,[2]; [4],8 h
same,time of maximal MCP-1 transcript increase after sPDNF stimulation,[2]; [4],3 h
